What was measured:
Assay type in all cases: biochemical
SRM = SRM (Homo sapiens, UniProt Q9H3Y6); experiment: TR-FRET kinase assay, SRM; conditions: Kinase Concentration 0.5 nM; 50 nM ULight-labeled substrate, 200 micromolar ATP, 2 hours
Experimental: (§1) TR-FRET kinase assays are performed under standardized conditions: various individual kinases are incubated with 50 nM of kinase substrate BRB1 labeled with the TR-FRET acceptor dye ULight (PerkinElmer) and 200 micromolar ATP in 10 μL of kinase assay buffer (50 mM HEPES pH7.5, 10 mM MgCl2, 3 mM MnCl2, 1 mM EGTA, 2 mM DTT and 0.01% Tween-20) for 2 hours at room temperature. Reactions are stopped with EDTA, and anti-phospho-tyrosine antibodies (clone PT66) labeled with the TR-FRET europium chelate donor dye are added to a final concentration of 2 nM in a final volume of 20 μL. The TR-FRET signal emitted at 665 nm is read one hour after the addition of antibodies using a TR-FRET plate reader such as the Envision® Multilabel Plate reader (PerkinElmer). The emitted signal at 665 nm is proportional to the extent of peptide phosphorylation, Control reactions indicative of background are performed excluding ATP from the reaction.
(§2) Assay conditions are identical to those used described for FIG. 1.

PDGFRa = PDGFRa (Homo sapiens, UniProt P16234); experiment: TR-FRET kinase assay, PDGFRa; conditions: Kinase Concentration 0.5 nM; 50 nM ULight-labeled substrate, 200 micromolar ATP, 2 hours
Sequence of PDGFRa (P16234 24-1089, species assumed): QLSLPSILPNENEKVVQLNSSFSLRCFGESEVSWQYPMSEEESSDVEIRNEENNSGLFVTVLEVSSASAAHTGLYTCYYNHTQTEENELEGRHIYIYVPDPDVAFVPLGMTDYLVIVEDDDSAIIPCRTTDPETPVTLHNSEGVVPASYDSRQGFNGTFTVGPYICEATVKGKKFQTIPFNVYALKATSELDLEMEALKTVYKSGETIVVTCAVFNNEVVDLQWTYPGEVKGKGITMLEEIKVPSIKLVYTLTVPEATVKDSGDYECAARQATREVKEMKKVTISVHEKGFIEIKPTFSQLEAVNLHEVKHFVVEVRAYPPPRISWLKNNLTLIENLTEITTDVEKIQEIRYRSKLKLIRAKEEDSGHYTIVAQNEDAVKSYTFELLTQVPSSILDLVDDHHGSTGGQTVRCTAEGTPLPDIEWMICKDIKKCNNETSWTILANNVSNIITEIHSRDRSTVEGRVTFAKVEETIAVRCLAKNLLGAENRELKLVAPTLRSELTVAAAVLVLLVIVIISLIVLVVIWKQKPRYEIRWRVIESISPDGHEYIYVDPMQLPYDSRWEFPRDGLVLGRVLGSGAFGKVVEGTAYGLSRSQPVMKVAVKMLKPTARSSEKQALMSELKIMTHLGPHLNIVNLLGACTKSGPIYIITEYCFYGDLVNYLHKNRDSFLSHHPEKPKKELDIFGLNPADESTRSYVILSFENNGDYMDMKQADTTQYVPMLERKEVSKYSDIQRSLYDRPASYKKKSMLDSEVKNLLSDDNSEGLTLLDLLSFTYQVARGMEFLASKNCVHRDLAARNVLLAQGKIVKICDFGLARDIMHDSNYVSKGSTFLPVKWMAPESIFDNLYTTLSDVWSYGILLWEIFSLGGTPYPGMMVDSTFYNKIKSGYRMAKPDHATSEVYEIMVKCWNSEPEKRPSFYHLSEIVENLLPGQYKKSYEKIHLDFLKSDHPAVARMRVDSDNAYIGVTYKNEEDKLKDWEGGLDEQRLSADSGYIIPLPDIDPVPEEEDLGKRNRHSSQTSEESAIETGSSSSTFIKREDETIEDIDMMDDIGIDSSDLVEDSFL
Experimental: as §1, §2

PYK2 = PYK2 (Homo sapiens, UniProt Q14289); experiment: TR-FRET kinase assay, PYK2; conditions: Kinase Concentration 0.25 nM; 50 nM ULight-labeled substrate, 200 micromolar ATP, 2 hours
Sequence of PYK2 (Q14289 whole entry, species assumed): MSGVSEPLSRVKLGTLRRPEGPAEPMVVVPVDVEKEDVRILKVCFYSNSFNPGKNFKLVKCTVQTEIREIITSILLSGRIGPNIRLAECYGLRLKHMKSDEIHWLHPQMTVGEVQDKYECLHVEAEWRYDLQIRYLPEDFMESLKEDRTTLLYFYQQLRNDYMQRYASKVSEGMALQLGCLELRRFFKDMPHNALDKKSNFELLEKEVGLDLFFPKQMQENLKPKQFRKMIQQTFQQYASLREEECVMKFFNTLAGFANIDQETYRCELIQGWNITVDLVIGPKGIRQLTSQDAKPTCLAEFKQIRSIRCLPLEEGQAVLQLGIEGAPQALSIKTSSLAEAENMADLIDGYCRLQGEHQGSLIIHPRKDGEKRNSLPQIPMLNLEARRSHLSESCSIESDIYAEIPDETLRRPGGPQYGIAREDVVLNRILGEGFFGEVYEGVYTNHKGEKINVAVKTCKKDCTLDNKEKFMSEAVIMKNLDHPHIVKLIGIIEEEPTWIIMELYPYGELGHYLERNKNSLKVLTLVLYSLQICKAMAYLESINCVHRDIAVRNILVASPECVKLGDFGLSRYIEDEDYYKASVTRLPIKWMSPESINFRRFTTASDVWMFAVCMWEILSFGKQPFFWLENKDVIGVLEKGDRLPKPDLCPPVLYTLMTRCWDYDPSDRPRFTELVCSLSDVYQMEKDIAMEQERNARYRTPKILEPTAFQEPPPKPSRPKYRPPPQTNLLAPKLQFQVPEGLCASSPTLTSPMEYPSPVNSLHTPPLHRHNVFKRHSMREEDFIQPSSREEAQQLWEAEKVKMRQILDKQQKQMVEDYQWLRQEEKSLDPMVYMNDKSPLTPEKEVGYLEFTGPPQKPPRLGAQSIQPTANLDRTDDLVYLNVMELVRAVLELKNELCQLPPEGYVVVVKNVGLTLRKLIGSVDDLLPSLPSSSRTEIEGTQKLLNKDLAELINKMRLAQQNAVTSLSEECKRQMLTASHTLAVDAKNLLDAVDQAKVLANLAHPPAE
Experimental: as §1, §2

INSR = INSR (Homo sapiens, UniProt P06213); experiment: TR-FRET kinase assay, INSR; conditions: Kinase Concentration 20 nM; 50 nM ULight-labeled substrate, 200 micromolar ATP, 2 hours
Experimental: as §1, §2

ABL [T315I] (ABL1) = ABL [T315I] (ABL1) (Homo sapiens, UniProt P00519, T315I); experiment: TR-FRET kinase assay, ABL [T315I]; conditions: Kinase Concentration 0.5 nM; 50 nM ULight-labeled substrate, 200 micromolar ATP, 2 hours
Experimental: as §1, §2

TYRO3 = target: T1, TYRO3 (Homo sapiens, UniProt Q06418); experiment: TR-FRET kinase assay, TYRO3; conditions: Kinase Concentration 0.25 nM; 50 nM ULight-labeled substrate, 200 micromolar ATP, 2 hours
T1 sequence (Q06418 41-890): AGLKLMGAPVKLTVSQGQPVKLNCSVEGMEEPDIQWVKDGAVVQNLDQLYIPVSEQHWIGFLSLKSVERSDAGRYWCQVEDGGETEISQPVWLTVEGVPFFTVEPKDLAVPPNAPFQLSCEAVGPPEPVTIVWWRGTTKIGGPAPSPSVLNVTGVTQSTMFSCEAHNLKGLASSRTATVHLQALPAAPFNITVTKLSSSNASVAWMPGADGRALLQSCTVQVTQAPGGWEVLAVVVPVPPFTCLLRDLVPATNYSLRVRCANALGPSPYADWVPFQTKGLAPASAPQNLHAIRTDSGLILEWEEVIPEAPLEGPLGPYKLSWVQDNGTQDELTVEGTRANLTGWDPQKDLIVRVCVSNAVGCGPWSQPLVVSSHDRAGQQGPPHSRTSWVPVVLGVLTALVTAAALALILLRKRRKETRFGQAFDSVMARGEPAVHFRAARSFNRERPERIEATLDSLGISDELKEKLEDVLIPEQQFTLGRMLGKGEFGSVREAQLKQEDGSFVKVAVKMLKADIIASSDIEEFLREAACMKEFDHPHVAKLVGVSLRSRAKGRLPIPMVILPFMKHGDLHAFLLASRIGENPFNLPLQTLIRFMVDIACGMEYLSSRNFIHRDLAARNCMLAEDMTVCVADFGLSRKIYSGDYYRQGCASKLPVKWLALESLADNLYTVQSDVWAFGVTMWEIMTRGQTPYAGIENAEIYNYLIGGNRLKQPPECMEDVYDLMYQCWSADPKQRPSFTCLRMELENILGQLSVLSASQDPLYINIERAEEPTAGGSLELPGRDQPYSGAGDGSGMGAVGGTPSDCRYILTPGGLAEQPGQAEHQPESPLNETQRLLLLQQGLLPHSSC
Experimental: as §1, §2

TIE2 = TIE2 (Homo sapiens, UniProt Q02763); experiment: TR-FRET kinase assay, TIE2; conditions: Kinase Concentration 0.5 nM; 50 nM ULight-labeled substrate, 200 micromolar ATP, 2 hours
Sequence of TIE2 (Q02763 23-1124, species assumed): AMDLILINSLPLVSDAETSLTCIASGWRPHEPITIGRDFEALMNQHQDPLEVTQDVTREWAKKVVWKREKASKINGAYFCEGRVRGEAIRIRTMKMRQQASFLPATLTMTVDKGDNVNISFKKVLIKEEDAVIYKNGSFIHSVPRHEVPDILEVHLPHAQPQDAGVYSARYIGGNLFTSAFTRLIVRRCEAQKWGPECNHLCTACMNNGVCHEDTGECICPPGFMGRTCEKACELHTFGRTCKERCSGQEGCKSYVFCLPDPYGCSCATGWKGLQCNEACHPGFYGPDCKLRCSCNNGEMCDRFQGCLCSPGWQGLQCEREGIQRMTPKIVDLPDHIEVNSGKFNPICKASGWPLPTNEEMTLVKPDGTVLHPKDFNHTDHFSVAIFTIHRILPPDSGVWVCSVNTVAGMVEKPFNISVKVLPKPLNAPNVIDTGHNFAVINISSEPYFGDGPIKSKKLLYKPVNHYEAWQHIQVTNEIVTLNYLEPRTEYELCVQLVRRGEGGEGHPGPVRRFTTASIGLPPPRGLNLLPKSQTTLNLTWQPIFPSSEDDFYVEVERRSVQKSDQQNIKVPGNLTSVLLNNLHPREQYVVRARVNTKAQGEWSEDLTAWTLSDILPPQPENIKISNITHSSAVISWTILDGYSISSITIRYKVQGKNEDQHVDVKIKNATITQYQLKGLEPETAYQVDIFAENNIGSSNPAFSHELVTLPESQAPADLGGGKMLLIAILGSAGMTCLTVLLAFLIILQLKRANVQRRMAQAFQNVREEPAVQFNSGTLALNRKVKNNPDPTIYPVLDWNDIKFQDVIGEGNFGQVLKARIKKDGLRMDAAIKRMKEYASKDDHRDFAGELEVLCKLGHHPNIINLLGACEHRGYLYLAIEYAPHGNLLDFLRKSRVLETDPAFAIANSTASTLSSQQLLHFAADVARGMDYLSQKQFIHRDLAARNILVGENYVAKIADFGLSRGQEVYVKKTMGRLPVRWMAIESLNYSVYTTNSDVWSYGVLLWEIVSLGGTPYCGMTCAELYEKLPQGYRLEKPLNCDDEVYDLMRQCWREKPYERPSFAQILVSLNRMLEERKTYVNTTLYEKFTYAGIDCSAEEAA
Experimental: as §1, §2

EphA8 = target: T2, EphA8 (Homo sapiens, UniProt P29322); experiment: TR-FRET kinase assay, EphA8; conditions: Kinase Concentration 0.25 nM; 50 nM ULight-labeled substrate, 200 micromolar ATP, 2 hours
T2 sequence (P29322 28-1005): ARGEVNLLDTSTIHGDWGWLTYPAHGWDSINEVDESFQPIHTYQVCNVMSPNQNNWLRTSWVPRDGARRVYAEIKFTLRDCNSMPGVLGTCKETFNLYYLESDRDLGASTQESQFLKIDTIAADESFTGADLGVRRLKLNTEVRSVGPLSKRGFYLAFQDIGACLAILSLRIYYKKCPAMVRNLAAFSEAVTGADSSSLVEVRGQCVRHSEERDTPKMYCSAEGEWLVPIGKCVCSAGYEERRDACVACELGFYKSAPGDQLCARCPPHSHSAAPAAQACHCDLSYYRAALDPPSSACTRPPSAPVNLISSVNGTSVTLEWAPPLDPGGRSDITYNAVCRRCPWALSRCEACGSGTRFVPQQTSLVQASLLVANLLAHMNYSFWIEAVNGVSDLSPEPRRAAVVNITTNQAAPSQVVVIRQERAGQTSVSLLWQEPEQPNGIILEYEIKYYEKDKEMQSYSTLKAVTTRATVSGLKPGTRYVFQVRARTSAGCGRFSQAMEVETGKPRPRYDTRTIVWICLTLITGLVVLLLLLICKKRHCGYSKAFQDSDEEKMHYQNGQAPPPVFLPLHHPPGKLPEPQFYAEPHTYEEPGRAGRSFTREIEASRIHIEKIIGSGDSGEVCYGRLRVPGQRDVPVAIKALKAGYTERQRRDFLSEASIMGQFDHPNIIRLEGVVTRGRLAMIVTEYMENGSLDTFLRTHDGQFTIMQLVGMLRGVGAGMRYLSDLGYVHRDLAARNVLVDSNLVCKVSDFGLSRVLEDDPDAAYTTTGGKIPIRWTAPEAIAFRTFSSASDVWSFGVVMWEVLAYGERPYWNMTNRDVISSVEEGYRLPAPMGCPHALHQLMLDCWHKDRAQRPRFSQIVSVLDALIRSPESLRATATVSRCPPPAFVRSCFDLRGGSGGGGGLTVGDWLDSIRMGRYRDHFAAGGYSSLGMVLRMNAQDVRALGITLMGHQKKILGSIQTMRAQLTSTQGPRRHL
Experimental: as §1, §2

LTK = LTK (Homo sapiens, UniProt P29376); experiment: TR-FRET kinase assay, LTK; conditions: Kinase Concentration 1 nM; 50 nM ULight-labeled substrate, 200 micromolar ATP, 2 hours
Sequence of LTK (P29376 17-864, species assumed): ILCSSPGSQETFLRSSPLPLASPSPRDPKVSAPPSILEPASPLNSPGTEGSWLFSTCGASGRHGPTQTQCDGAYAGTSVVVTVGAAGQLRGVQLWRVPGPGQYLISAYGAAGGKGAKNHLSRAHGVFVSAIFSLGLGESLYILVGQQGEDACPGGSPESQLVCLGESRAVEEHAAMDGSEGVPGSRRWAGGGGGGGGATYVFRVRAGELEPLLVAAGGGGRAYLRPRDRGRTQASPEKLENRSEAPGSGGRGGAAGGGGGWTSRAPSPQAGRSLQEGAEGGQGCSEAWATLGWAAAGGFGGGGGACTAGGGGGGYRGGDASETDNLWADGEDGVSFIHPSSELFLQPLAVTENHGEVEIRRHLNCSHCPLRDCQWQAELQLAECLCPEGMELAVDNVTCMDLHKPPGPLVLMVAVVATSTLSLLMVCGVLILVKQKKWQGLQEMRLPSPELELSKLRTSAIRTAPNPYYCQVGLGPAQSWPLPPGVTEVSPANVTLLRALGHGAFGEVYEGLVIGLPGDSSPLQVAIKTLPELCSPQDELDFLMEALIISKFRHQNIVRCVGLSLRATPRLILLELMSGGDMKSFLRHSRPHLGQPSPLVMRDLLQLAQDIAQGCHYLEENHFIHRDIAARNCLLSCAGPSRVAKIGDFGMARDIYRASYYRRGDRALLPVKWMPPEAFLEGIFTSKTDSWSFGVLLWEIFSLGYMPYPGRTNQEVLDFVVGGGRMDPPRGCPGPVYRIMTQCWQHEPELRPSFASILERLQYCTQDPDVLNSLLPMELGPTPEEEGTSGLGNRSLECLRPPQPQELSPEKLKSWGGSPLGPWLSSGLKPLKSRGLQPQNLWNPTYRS
Experimental: as §1, §2

FGR = FGR (Homo sapiens, UniProt P09769); experiment: TR-FRET kinase assay, FGR; conditions: Kinase Concentration 0.1 nM; 50 nM ULight-labeled substrate, 200 micromolar ATP, 2 hours
Experimental: as §1, §2

Sequence of SRM (Q9H3Y6 whole entry): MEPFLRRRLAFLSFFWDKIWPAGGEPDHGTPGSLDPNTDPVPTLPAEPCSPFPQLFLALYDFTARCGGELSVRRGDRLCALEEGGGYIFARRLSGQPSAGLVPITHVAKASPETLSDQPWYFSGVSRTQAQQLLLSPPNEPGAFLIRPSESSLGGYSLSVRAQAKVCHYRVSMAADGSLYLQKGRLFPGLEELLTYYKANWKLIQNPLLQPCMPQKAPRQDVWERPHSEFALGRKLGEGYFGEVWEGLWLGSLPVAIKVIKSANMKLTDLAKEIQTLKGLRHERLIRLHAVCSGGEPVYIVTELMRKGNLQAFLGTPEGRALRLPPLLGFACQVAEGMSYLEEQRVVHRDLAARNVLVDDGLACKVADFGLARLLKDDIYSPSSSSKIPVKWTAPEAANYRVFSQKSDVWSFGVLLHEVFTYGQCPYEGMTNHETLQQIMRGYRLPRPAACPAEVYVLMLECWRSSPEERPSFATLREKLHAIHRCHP

C AYE AYE AYE K EYA EYA EYA K AYA EYE R (CAYEAYEAYEKEYAEYAEYAKAYAEYER; tyrosine kinase substrate peptide) [BRB1]
Signal to Noise ratio with BRB1 Peptide (SRM): 32.5 | Signal to Noise ratio with BRB1 Peptide (PDGFRa): 8.0 | Signal to Noise ratio with BRB1 Peptide (PYK2): 2.9 | Signal to Noise ratio with BRB1 Peptide (INSR): 4.0 | Signal to Noise ratio with BRB1 Peptide (ABL [T315I] (ABL1)): 4.8 | Signal to Noise ratio with BRB1 Peptide (TYRO3): 6.1 | Signal to Noise ratio with BRB1 Peptide (TIE2): 17.7 | Signal to Noise ratio with BRB1 Peptide (EphA8): 32.3 | Signal to Noise ratio with BRB1 Peptide (LTK): 13.7 | Signal to Noise ratio with BRB1 Peptide (FGR): 29.3
